# From US6284456
# Test system: HIV-1 Tat Tat-1 delta1-47 (Human immunodeficiency virus 1 (HXB2))
# Test: EMSA
# Settings: truncated Tat-1 (construct assumed delta1-47)
substance,measurement,value
HIV-2 TAR-2 RNA wt (+1 to +123),binding signal (fold higher affinity than for TAR-1),4
